Data set [1] deals with T1, hcTnI (human cardiac troponin I) (Homo sapiens, UniProt P19429 P19429:2-210). Description: SPR. The procedure: (§1) Firstly, the binding affinities of the first aptamer, the second aptamer, and the third aptamer contained in the test kit for detecting the concentration of the cardiovascular disease-related biomarker of the present disclosure are tested. The surface plasmon resonance (SPR) method is used in the binding affinity test to measure the signal changes and calculate the dissociation constant (Kd) of the first aptamer, the second aptamer and the third aptamer against their respective target proteins. Alternatively, a primary antibody against the target protein and secondary antibody conjugated with an enzyme is used in test. The binding affinities of the first aptamer, the second aptamer, and the third aptamer against their respective target proteins are measured by detecting the intensities of luminescence.
On the technique in general: SPR reads the build-up and loss of mass on a sensor chip optically.

The target of data set [2] is T2, fibrinogen (UniProt P02671-2;P02675;P02679 P02671-2:20-644,P02675:31-491,P02679:27-453). Briefly: pulldown; protein-coated magnetic beads, qPCR; also no dose-dependent signal in FIG. 7B. The conditions noted are these: chain copies: 2. The method, then: (§2) The magnetic beads coated with the target protein or the non-target protein are mixed with the first aptamer, the second aptamer or the third aptamer, and then the magnetic beads are captured by the magnet and the aptamers which are not bound to the magnetic beads are washed away. Then, the magnetic beads are heated to denature the proteins on the magnetic beads for releasing the bound aptamers into the supernatant. Quantitative PCR is performed using the supernatant to analyze the number of residual aptamers, and compared with each other to test the specificity of the first aptamer, the second aptamer, and the third aptamer. In theory, a specific aptamer should only bind to its corresponding target protein, but not to a non-corresponding protein. The aptamers tested in the example are the first aptamer N20a, the second aptamer Tn2, and the third aptamer F03s.
(§3) Please refer to FIGS. 5A, 5B, 5C and 5D, which show specificity analysis results of a test kit for detecting the concentration of the cardiovascular disease-related biomarker according to one embodiment of the present disclosure. […] TT represents the hcTnI with the second aptamer Tn2, NT represents the NT-proBNP protein with the second aptamer Tn2, FT represents the fibrinogen protein with the second aptamer Tn2, and BT represents the BSA protein with the second aptamer Tn2. FF represents the fibrinogen protein with the third aptamer F03s, NF represents the NT-proBNP with the third aptamer F03s, TF represents the hcTnI with the third aptamer F03s, and BF represents the BSA protein with the third aptamer F03s.

Data set [3] concerns the target T3, BSA (bovine serum albumin) (Bos taurus, UniProt P02769 P02769:25-607). The data set is described as above. The procedure: as §2, §3
For data set [4], the target named is T4, NT-proBNP (N-terminal pro-brain natriuretic peptide) (UniProt P16860 P16860:27-102). The data set is described as above. The procedure:
as §2, §3

Data set [5] concerns the target T2, fibrinogen. Description: SPR. The conditions noted are these: chain copies: 2. The method, then:
as §1

The target of data set [6] is T3, BSA (bovine serum albumin). Description: pulldown; protein-coated magnetic beads, qPCR.
Excerpt: as §2, with “In the specificity test, the single-stranded DNA of the first aptamer, the second aptamer and the third aptamer are synthesized first. The magnetic” for “The magnetic”
as §3

Data set [7] deals with T4, NT-proBNP (N-terminal pro-brain …). Briefly: pulldown; protein-coated magnetic beads, qPCR.
Excerpt: as §2, with “In the specificity test, the single-stranded DNA of the first aptamer, the second aptamer and the third aptamer are synthesized first. The magnetic” for “The magnetic”
as §3
(Quantitative PCR measures a nucleic acid by following its amplification.)

Data set [8] concerns the target T1, hcTnI (human cardiac troponin I). Description: pulldown; protein-coated magnetic beads, qPCR.
Excerpt: as §2, with “In the specificity test, the single-stranded DNA of the first aptamer, the second aptamer and the third aptamer are synthesized first. The magnetic” for “The magnetic”
as §3

Data set [9] shares this target. Briefly: antibody luminescence assay. The method, then: as §1
The curves of binding affinity curve are plotted with luminescence intensity of the first aptamer, the second aptamer or the third aptamer with its target protein. The first aptamer, the second aptamer or the third aptamer is bound to the target protein. And then the aptamer-protein complex is incubated with antibodies against target proteins and further with secondary antibodies conjugated with the enzyme, which could produce luminescence when providing substrates. The signal of luminescence of the first aptamer, the second aptamer or the third aptamer is detected. […]

The target in data set [10] is T4, NT-proBNP (N-terminal pro-brain …). Description: SPR. The procedure:
as §1

Data set [11] addresses T2, fibrinogen. Description: pulldown; protein-coated magnetic beads, qPCR. The conditions noted are these: chain copies: 2.
Excerpt: as §2, with “In the specificity test, the single-stranded DNA of the first aptamer, the second aptamer and the third aptamer are synthesized first. The magnetic” for “The magnetic”
as §3

T4 sequence (P16860 27-102, one chain of several): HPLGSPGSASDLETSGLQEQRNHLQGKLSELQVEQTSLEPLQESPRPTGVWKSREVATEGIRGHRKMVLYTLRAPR
T3 sequence (P02769 25-607, one chain of several): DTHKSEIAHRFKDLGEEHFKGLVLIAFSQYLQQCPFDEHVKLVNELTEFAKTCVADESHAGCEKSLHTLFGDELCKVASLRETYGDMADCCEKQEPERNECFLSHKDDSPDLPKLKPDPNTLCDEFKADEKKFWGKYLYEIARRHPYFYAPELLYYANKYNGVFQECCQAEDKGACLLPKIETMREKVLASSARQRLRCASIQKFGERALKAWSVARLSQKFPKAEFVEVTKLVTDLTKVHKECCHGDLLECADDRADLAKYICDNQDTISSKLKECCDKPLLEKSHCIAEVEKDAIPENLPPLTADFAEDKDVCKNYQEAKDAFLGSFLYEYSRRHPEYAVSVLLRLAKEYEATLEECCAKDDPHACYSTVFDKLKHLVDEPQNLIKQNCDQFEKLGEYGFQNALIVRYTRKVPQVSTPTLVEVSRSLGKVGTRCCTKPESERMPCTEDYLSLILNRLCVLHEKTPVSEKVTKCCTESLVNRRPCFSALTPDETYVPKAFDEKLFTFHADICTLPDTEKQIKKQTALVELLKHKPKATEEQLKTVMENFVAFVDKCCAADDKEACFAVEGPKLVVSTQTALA
T1 sequence (P19429 2-210, one chain of several): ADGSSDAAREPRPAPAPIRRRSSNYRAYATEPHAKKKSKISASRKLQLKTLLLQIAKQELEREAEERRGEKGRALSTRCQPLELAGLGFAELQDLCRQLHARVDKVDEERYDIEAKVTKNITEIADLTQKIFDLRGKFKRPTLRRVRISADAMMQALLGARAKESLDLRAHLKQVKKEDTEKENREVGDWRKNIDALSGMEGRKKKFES
T2 sequence (P02671 other isoform, or with tags, fused parts or gaps, chain 1 of 3): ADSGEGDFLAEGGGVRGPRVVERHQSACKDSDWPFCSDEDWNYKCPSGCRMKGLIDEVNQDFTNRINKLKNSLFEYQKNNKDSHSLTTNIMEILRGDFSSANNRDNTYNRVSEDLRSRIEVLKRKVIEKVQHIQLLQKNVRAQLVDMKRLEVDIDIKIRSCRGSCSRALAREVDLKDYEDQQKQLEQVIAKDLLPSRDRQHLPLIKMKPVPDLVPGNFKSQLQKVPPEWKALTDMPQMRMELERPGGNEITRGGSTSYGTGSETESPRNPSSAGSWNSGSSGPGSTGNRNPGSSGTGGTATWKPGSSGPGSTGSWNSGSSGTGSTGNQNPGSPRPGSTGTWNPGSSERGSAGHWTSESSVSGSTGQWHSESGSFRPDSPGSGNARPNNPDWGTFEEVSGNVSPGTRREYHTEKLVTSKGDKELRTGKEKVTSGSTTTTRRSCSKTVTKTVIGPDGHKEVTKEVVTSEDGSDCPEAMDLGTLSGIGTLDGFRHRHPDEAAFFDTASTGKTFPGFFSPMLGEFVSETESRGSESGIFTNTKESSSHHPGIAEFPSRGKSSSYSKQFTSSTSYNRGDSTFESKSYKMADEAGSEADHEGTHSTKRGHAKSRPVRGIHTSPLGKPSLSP
T2 sequence (P02675 31-491, chain 2 of 3): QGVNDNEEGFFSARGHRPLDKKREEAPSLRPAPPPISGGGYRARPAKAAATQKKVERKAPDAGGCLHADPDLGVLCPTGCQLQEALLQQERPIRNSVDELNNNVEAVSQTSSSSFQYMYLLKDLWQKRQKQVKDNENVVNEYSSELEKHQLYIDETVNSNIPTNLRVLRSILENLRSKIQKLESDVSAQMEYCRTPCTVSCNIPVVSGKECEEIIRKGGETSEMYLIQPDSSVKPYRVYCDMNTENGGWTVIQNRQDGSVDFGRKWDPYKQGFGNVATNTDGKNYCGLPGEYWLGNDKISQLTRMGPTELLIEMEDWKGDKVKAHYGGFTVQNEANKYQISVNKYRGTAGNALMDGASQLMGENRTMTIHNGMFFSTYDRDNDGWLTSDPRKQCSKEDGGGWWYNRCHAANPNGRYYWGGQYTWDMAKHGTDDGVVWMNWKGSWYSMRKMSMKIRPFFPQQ
T2 sequence (P02679 27-453, chain 3 of 3): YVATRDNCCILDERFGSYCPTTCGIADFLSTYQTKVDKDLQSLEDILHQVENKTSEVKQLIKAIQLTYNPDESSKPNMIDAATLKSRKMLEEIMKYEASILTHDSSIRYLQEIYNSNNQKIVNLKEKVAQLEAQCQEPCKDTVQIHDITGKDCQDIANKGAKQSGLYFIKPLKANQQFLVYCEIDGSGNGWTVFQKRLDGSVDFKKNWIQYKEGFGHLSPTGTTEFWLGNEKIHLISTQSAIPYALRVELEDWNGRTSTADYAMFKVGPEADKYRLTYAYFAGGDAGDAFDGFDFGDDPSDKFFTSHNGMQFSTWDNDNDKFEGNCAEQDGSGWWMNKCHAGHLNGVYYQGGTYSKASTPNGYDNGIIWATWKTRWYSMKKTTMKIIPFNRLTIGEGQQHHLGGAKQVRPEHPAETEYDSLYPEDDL

B1: Tn2 (ssDNA)
DNA: GGCAGGAAGACAAACACCCAACCGAGGATGCAACGCTTGTTGTCATACTGTGATGTTGGTCTGTGGTGCTGT
For the molecule B1, the Kd in [1] turned out to be 19.8 nM. For the same molecule, the binding result in data set [2], in data set [3] and in data set [4] was “no binding” throughout.

B2: F03s (ssDNA)
DNA: GGCAGGAAGACAAACAGCACCGGGTCCGAAACAGGCTTAGGTATGATCACAGCTCATGGTCTGTGGTGCTGT
Molecule B2 had a Kd in [5] of 4.4 nM. Also, the binding result in data set [6], in [7] and in data set [8] was “no binding” in each case.

B3: cTni3 (ssDNA)
DNA: GGCAGGAAGACAAACAGGGGTACTTAGCATAGGAGTTTTGTTCTGTCGCACCTCGTTGGTCTGTGGTGCTGT
As for B3, the Kd in [9] was found to be 2.3 nM.

B4: N20a (ssDNA)
DNA: GGCAGGAAGACAAACAGGTCGTAGTGGAAACTGTCCACCGTAGACCGGTTATCTAGTGGTCTGTGGTGCTGT
B4: binding in [10] was characterised by a dissociation constant (Kd) of 2.89 nM. Besides, the binding result in data set [11], in data set [6] and in data set [8] was “no binding” throughout.

B5: cTni6 (ssDNA)
DNA: GGCAGGAAGACAAACACGGGGCGGCCGAAACAATGCGTTTCGGACCCAGCAACTCGTGGTCTGTGGTGCTGT
B5: the affinity in [9], expressed as Kd, was 49.4 nM.

The term Kd denotes the concentration at which binding is half-saturated.

Values taken from US20200283847, “TEST KIT FOR DETECTING CONCENTRATION OF CARDIOVASCULAR DISEASE-RELATED BIOMARKER AND CONCENTRATION DETECTION METHOD FOR DETECTING CONCENTRATION OF CARDIOVASCULAR DISEASE-RELATED BIOMARKER” (National Tsing Hua University, published 2020).
